{"source": "paper PMC6905856", "about": "“Movement of accessible plasma membrane cholesterol by the GRAMD1 lipid transfer protein complex” (eLife, 2019)", "target": "the molecule itself", "assay": "SEC; purified EGFP fusion of the luminal helix region alone on Superdex 200 increase 10/300 GL; 20 mM HEPES, 300 mM NaCl, 10% glycerol, 0.5 mM TCEP, pH 7.5; self-association judged from the elution volume"}
{"protein": "SQTEWAQLLESQQKYHDTELQKWREIIKSSVMLLDQMKDSLINLQ (domain or fragment, human, UniProt Q3KR37-1 674-718, looked up, GRAMD1b, human, luminal helix region, residues 674-718; Predicted molecular weight ~35 kDa; also called EGFP-linker-GRAMD1b luminal helix; EGFP–(GGGS)3–GRAMD1b luminal helix (674–718); source: E. coli BL21-DE3 Rosetta, purified (Co-TALON or Ni-NTA, gel filtration on Superdex 200 increase); not shown: EGFP with (GGGS)3 linker, N-terminal, kept)", "note": "[EGFP-tagged luminal helix region of wild-type GRAMD1b (EGFP–helix: EGFP–GRAMD1b 674–718)]", "values": [{"measurement": "binding result", "result": "binds"}]}
